From publication PMC4889046 (PLoS ONE, 2016)

Molecular target: the molecule itself
Test: cross-linking

B1: APOBEC4 fused to three C-terminal HA-tags (A4-HA) (natural protein, human, UniProt Q8WW27 1-367, looked up)
chain: MEPIYEEYLANHGTIVKPYYWLSFSLDCSNCPYHIRTGEEARVSLTEFCQIFGFPYGTTFPQTKHLTFYELKTSSGSLVQKGHASSCTGNYIHPESMLFEMNGYLDSAIYNNDSIRHIILYSNNSPCNEANHCCISKMYNFLITYPGITLSIYFSQLYHTEMDFPASAWNREALRSLASLWPRVVLSPISGGIWHSVLHSFISGVSGSHVFQPILTGRALADRHNAYEINAITGVKPYFTDVLLQTKRNPNTKAQEALESYPLNNAFPGQFFQMPSGQLQPNLPPDLRAPVVFVLVPLRDLPPMHMGQNPNKPRNIVRHLNMPQMSFQETKDLGRLPTGRSVEIVEITEQFASSKEADEKKKKKGKK
notes: also called A4-3xHA; pA4-HA; not shown: 3xHA, C-terminal, kept
  stoichiometry N: 2
